Experimental data reported in paper PMC3701042, “Structural Studies of a Bacterial tRNA^HIS Guanylyltransferase (Thg1)-Like Protein, with Nucleotide in the Activation and Nucleotidyl Transfer Sites” (PLoS ONE, 2013).

Experiments:
[1] = target: Bacillus thuringiensis tRNA^His guanylyltransferase (Thg1)-like protein (TLP) (Bacillus thuringiensis); assay: crystal structure; BtTLP co-crystallised with ~2 mM GTP; tetragonal crystals, space group P4_(1), 2.96 Å; four monomers per asymmetric unit
[2] = target: Bacillus thuringiensis tRNA^His guanylyltransferase (Thg1)-like protein (TLP) (Bacillus thuringiensis); assay: crystal structure; BtTLP co-crystallised with ~1 mM ATP; orthorhombic crystals, space group C222_(1), 2.35 Å; four molecules per asymmetric unit (two dimers)

stoichiometry N [1]: 4
stoichiometry N [2]: 4
Substance: Bacillus thuringiensis tRNA^His guanylyltransferase (Thg1)-like protein (TLP) (enzyme)
